From PMC9482650, “Quantitative fragmentomics allow affinity mapping of interactomes” (Nature Communications, 2022)

T1: APBA1_1, Q02410
T1 sequence (Q02410 651-752, limits assumed, looked up): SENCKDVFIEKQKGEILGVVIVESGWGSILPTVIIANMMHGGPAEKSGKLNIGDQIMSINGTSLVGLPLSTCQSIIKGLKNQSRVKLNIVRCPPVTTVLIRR

T2: SYNJ2BP, P57105
T2 sequence (P57105 8-110, limits assumed, looked up): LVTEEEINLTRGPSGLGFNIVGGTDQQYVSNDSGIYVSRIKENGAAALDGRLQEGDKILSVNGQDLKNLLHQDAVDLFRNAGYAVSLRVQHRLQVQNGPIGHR

T3: MPP7, Q5T2T1
T3 sequence (Q5T2T1 134-230, limits assumed, looked up): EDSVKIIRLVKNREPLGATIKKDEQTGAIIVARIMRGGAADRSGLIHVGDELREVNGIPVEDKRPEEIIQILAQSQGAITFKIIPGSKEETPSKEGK

T4: GRIP1_3, Q9Y3R0
T4 sequence (Q9Y3R0 247-346, limits assumed, looked up): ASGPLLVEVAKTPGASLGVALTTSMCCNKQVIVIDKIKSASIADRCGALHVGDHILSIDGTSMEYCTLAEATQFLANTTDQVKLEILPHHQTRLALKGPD

T5: GRIP1_7, Q9Y3R0
T5 sequence (Q9Y3R0 999-1096, limits assumed, looked up): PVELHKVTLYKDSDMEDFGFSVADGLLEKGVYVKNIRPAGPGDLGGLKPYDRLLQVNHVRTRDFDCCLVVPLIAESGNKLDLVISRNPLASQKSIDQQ

T6: APBA2_1, Q99767
T6 sequence (Q99767 563-664, limits assumed, looked up): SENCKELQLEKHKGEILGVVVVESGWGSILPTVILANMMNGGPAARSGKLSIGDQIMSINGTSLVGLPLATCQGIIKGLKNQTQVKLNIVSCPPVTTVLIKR

T7: TJP3_3, O95049
T7 sequence (O95049 375-456, limits assumed, looked up): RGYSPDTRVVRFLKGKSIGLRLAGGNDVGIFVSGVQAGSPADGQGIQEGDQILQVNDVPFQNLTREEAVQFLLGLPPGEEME

T8: GRIP1_5, Q9Y3R0
T8 sequence (Q9Y3R0 568-668, limits assumed, looked up): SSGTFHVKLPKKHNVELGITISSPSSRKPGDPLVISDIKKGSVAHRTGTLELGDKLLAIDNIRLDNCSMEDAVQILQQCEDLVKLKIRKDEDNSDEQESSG

T9: GRIP1_2, Q9Y3R0
T9 sequence (Q9Y3R0 145-248, limits assumed, looked up): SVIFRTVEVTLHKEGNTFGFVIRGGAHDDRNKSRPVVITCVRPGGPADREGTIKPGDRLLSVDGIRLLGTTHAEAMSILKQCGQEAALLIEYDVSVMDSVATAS


Legend:
Test in all cases: holdup assay
Set-up in all cases: key: below the threshold = too weak to quantify, mostly under pKd 3.1 to 4
Details in all cases: plain residues with an end cap or a label only (N-terminal biotin on a linker: ado-ado)
SNX27, Q96L92 = molecular target: SNX27, Q96L92
APBA1_1, Q02410 = molecular target: T1, APBA1_1, Q02410
FRMPD4, Q14CM0 = molecular target: FRMPD4, Q14CM0
SYNJ2BP, P57105 = molecular target: T2, SYNJ2BP, P57105
GRIP2_5, Q9C0E4 = molecular target: GRIP2_5, Q9C0E4
MPP7, Q5T2T1 = molecular target: T3, MPP7, Q5T2T1
GRIP2_6, Q9C0E4 = molecular target: GRIP2_6, Q9C0E4
LAP2, Q96RT1 = molecular target: LAP2, Q96RT1
GRID2IP_1, A4D2P6 = molecular target: GRID2IP_1, A4D2P6
GRIP1_3, Q9Y3R0 = molecular target: T4, GRIP1_3, Q9Y3R0
DLG5_1, Q8TDM6 = molecular target: DLG5_1, Q8TDM6
Inadl_2, Q8NI35 = molecular target: Inadl_2, Q8NI35
GRIP1_7, Q9Y3R0 = molecular target: T5, GRIP1_7, Q9Y3R0
MAGI2_2, Q86UL8 = molecular target: MAGI2_2, Q86UL8
APBA2_1, Q99767 = molecular target: T6, APBA2_1, Q99767
TJP3_3, O95049 = molecular target: T7, TJP3_3, O95049
HTRA2, O43464 = molecular target: HTRA2, O43464
TJP2_1, Q9UDY2 = molecular target: TJP2_1, Q9UDY2
GRIP2_7, Q9C0E4 = molecular target: GRIP2_7, Q9C0E4
GRIP1_5, Q9Y3R0 = molecular target: T8, GRIP1_5, Q9Y3R0
MAGI2_4, Q86UL8 = molecular target: MAGI2_4, Q86UL8
SCRIB_2, Q14160 = molecular target: SCRIB_2, Q14160
SCRIB_1, Q14160 = molecular target: SCRIB_1, Q14160
CASK, O14936 = molecular target: CASK, O14936
PDZRN4_1, Q6ZMN7 = molecular target: PDZRN4_1, Q6ZMN7
GRIP2_4, Q9C0E4 = molecular target: GRIP2_4, Q9C0E4
GRIP1_2, Q9Y3R0 = molecular target: T9, GRIP1_2, Q9Y3R0
GORASP2, Q9H8Y8 = molecular target: GORASP2, Q9H8Y8

Sequence of GRIP2_7, Q9C0E4 (Q9C0E4 934-1023): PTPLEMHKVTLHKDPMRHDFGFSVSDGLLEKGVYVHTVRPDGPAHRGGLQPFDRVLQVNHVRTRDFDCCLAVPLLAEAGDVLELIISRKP
Sequence of DLG5_1, Q8TDM6 (Q8TDM6 617-713): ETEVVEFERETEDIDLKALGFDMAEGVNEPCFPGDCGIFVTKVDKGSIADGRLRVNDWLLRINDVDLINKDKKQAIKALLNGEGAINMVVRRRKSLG
Sequence of MAGI2_2, Q86UL8 (Q86UL8 410-522): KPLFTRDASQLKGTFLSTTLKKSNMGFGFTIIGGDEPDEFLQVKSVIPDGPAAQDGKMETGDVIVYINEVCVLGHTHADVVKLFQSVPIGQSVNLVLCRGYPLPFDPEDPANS
Sequence of SCRIB_1, Q14160 (Q14160 718-814): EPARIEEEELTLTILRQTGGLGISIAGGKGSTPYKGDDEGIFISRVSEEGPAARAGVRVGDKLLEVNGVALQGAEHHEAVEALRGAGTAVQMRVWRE
Sequence of CASK, O14936 (O14936 487-570): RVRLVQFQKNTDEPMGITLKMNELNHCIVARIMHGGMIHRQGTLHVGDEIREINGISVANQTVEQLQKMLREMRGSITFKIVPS
Sequence of GRIP2_6, Q9C0E4 (Q9C0E4 648-740): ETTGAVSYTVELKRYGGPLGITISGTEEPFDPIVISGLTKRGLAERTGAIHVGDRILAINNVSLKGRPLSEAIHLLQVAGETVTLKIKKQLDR
Sequence of MAGI2_4, Q86UL8 (Q86UL8 772-865): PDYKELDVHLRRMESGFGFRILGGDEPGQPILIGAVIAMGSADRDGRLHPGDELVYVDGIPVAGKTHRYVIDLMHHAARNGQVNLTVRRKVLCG
Sequence of PDZRN4_1, Q6ZMN7 (Q6ZMN7 213-318): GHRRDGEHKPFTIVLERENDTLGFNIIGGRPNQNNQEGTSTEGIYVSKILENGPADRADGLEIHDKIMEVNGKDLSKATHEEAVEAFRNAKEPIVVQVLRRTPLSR
Sequence of SCRIB_2, Q14160 (Q14160 857-960): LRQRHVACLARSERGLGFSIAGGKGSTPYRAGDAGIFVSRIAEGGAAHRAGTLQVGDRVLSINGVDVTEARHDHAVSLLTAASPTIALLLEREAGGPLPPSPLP
Sequence of HTRA2, O43464 (O43464 355-458): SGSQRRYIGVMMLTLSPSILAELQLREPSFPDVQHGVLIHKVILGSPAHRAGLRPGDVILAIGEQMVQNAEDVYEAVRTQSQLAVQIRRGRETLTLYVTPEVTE
Sequence of GRID2IP_1, A4D2P6 (A4D2P6 1-87): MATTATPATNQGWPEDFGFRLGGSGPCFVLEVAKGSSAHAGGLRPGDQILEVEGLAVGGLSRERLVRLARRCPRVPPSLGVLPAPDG
Sequence of GRIP2_4, Q9C0E4 (Q9C0E4 446-548): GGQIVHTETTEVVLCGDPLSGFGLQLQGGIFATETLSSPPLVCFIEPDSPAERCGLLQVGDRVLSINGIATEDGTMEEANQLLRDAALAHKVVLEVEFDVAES
Sequence of TJP2_1, Q9UDY2 (Q9UDY2 24-128): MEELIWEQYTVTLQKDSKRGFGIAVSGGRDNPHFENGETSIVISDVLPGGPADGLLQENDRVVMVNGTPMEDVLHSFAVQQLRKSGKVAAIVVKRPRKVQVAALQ
Sequence of GRIP2_5, Q9C0E4 (Q9C0E4 544-642): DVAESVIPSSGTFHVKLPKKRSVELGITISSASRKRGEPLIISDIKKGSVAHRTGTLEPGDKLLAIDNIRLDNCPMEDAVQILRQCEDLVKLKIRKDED
Sequence of Inadl_2, Q8NI35 (Q8NI35 238-335): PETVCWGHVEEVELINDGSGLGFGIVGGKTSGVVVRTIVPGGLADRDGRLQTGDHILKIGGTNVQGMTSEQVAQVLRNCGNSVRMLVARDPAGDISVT
Sequence of LAP2, Q96RT1 (Q96RT1 other isoform, or with tags, fused parts or gaps): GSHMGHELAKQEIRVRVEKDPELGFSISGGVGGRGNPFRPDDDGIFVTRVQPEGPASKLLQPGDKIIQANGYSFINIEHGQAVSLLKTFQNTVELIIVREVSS
Sequence of FRMPD4, Q14CM0 (Q14CM0 67-160): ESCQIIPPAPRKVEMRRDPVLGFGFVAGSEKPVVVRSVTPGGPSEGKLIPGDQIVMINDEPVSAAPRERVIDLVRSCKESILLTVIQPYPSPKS

| Binder | pKd (SNX27, Q96L92) | pKd (APBA1_1, Q02410) | pKd (FRMPD4, Q14CM0) | pKd (SYNJ2BP, P57105) | pKd (GRIP2_5, Q9C0E4) | pKd (MPP7, Q5T2T1) | pKd (GRIP2_6, Q9C0E4) | pKd (LAP2, Q96RT1) | pKd (GRID2IP_1, A4D2P6) | pKd (GRIP1_3, Q9Y3R0) | pKd (DLG5_1, Q8TDM6) | pKd (Inadl_2, Q8NI35) | pKd (GRIP1_7, Q9Y3R0) | pKd (MAGI2_2, Q86UL8) | pKd (APBA2_1, Q99767) | pKd (TJP3_3, O95049) | pKd (HTRA2, O43464) | pKd (TJP2_1, Q9UDY2) | pKd (GRIP2_7, Q9C0E4) | pKd (GRIP1_5, Q9Y3R0) | further results |
| --- | --- | --- | --- | --- | --- | --- | --- | --- | --- | --- | --- | --- | --- | --- | --- | --- | --- | --- | --- | --- | --- |
| NNMAFETTHF [SLC5A12, Q1EHB4] | 5.62 | below the threshold | below the threshold | below the threshold | below the threshold | below the threshold | below the threshold | below the threshold | below the threshold | below the threshold | below the threshold | below the threshold | below the threshold | below the threshold | below the threshold | below the threshold | below the threshold | below the threshold | below the threshold | below the threshold | pKd (MAGI2_4, Q86UL8): below the threshold; pKd (SCRIB_2, Q14160): below the threshold; pKd (SCRIB_1, Q14160): 4.14; pKd (CASK, O14936): below the threshold; pKd (PDZRN4_1, Q6ZMN7): below the threshold; pKd (GRIP2_4, Q9C0E4): below the threshold; pKd (GRIP1_2, Q9Y3R0): below the threshold; pKd (GORASP2, Q9H8Y8): below the threshold |
| HLSTRQGTCV [ATRNL1, Q5VV63] | 4.05 | below the threshold | 3.51 | 5.37 | below the threshold | below the threshold | below the threshold | 3.94 | below the threshold | below the threshold | below the threshold | below the threshold | below the threshold | 4.73 | below the threshold | below the threshold | below the threshold | 4.35 | below the threshold | below the threshold | pKd (MAGI2_4, Q86UL8): 4.97; pKd (SCRIB_2, Q14160): 4.02; pKd (SCRIB_1, Q14160): 3.66; pKd (CASK, O14936): below the threshold; pKd (PDZRN4_1, Q6ZMN7): 3.76; pKd (GRIP2_4, Q9C0E4): below the threshold; pKd (GRIP1_2, Q9Y3R0): below the threshold; pKd (GORASP2, Q9H8Y8): 4.15 |
| LLQEEWETVM [PTH1R, Q03431] | 5.65 | below the threshold | 4.12 | below the threshold | 3.51 | below the threshold | below the threshold | below the threshold | below the threshold | below the threshold | below the threshold | below the threshold | below the threshold | below the threshold | below the threshold | below the threshold | below the threshold | below the threshold | below the threshold | below the threshold | pKd (MAGI2_4, Q86UL8): below the threshold; pKd (SCRIB_2, Q14160): below the threshold; pKd (SCRIB_1, Q14160): 3.62; pKd (CASK, O14936): below the threshold; pKd (PDZRN4_1, Q6ZMN7): 4.2; pKd (GRIP2_4, Q9C0E4): below the threshold; pKd (GRIP1_2, Q9Y3R0): 3.63; pKd (GORASP2, Q9H8Y8): below the threshold |
| SSSVNVSSNL [CXCR1, P25024] | 3.68 | below the threshold | 3.57 | below the threshold | below the threshold | below the threshold | below the threshold | below the threshold | below the threshold | below the threshold | below the threshold | below the threshold | below the threshold | below the threshold | below the threshold | below the threshold | below the threshold | below the threshold | below the threshold | below the threshold | pKd (MAGI2_4, Q86UL8): below the threshold; pKd (SCRIB_2, Q14160): below the threshold; pKd (SCRIB_1, Q14160): below the threshold; pKd (CASK, O14936): below the threshold; pKd (PDZRN4_1, Q6ZMN7): below the threshold; pKd (GRIP2_4, Q9C0E4): below the threshold; pKd (GRIP1_2, Q9Y3R0): below the threshold; pKd (GORASP2, Q9H8Y8): below the threshold |
